Six substances from publication PMC12108577 can be followed below.

The target in one test is CXCL1-Fc fusion protein (UniProt P09341). The test is described as follows: SDS-PAGE under reducing and non-reducing conditions; purified proteins separated under reducing and non-reducing conditions, Coomassie Blue staining.
Test [1] addresses CXCR2 on THP-1 cells (human (endogenous in THP-1)) (UniProt P25025). The test can be described thus: flow cytometry on cells; THP-1 cells incubated on ice with purified proteins for 30 min; bound protein detected with a fluorophore-conjugated anti-His tag antibody; FACS buffer (PBS, 1% FBS, 150 μM CaCl2); Fc receptors blocked with Human SeroBlock; single dose and a range of concentrations. Background: Flow cytometry measures light scatter and fluorescence of single cells or particles in a stream.

The target in another test is CXCR2 on THP-1 cells (UniProt P25025). The test can be described thus: flow cytometry on cells. The note with it: THP-1 cells (CXCR2+), FITC-conjugated anti-6X His antibody.
The target in test [2] is CXCR2 on THP-1 cells (human (endogenous in THP-1)) (UniProt P25025).
Another test deals with CXCL5-Fc fusion protein (UniProt P42830). The test can be described thus: SDS-PAGE under reducing and non-reducing conditions; purified proteins separated under reducing and non-reducing conditions, Coomassie Blue staining.
Setting [3] is: n = 3, parent: est. 100000, read off a plot.

Several values for one entry are separate records, joined by “and”; a condition that tells them apart may be missing. Identical values can stand only once.

Chain of CXCL1^1-Fc^1 (P09341 whole entry): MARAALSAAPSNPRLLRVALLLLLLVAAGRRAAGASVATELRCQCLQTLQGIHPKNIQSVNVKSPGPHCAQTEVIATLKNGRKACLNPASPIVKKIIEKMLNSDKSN
Chain of CXCL1^1-Fc^2 (P09341 whole entry, looked up, tested part not stated): as the sequence (P09341 whole entry) above

By stoichiometry N is commonly meant the number of molecules, sites or subunits per partner or assembly. With “CXCL1-Fc fusion protein (from UniProt P09341 35-107)”, the stoichiometry N in the test with CXCL1-Fc fusion protein was determined as 2. For the same substance, the fold higher mean fluorescence intensity per cell than CXCL1^1-Fc^2 or CXCL1^1-Fc^1 in test [1] is 3 fold and 4 fold.

As for “CXCL1-Fc fusion protein (from UniProt P09341) CXCL1-Fc chain:T366Y; Fc chain:Y407T”, the response came to 19000 MFI with CXCR2 on THP-1 cells (setting [3]) and 98.5% with CXCR2 on THP-1 cells (parent: 99.9).

As to “CXCL1-Fc fusion protein (from UniProt P09341) T366Y”, the response with CXCR2 on THP-1 cells (setting [3]) is 22000 MFI; in the test with CXCR2 on THP-1 cells (parent: 99.9) it was 97.9%.

For the substance “CXCL1^1-Fc^1 (from UniProt P09341 35-107) (Fc fusion)”, the IC50 of inhibition of THP-1 cell migration toward PDAC conditioned medium (Boyden chamber) in test [2] was 211 nM.

Substance “CXCL1^1-Fc^2 (from UniProt P09341 35-107) (Fc fusion)” returned an IC50 of inhibition of THP-1 cell migration toward PDAC conditioned medium (Boyden chamber) in test [2] of 28 nM.

For the substance “CXCL5-Fc fusion protein (from UniProt P42830 37-114)”, the stoichiometry N in the test with CXCL5-Fc fusion protein was 2.
